Data as given in the supplement of paper PMC12338614.
± gives the uncertainty stated by the source.

B1: library; numbered along this chain (parent)
chain: MEVVDPQQLGMFTEGELMSVGMDTFIHRIDSTEVIYQPRRKRAKLIGKYLMGDLLGEGSYGKVKEVLDSETLCRRAVKILKKKKLRRIPNGEANVKKEIQLLRRLRHKNVIQLVDVLYNEEKQKMYMVMEYCVCGMQEMLDSVPEKRFPVCQAHGYFCQLIDGLEYLHSQGIVHKDIKPGNLLLTTGGTLKISDLGVAEALHPFAADDTCRTSQGSPAFQPPEIANGLDTFSGFKVDIWSAGVTLYNITTGLYPFEGDNIYKLFENIGKGSYAIPGDCGPPLSDLLKGMLEYEPAKRFSIRQIRQHSWFRKKHPPAEAPVPIPPSPDTKDRWRSMTVVPYLEDLHGADEDEDLFDIEDDIIYTQDFTVPGQVPEEEASHNGQRRGLPKAVCMNGTEAAQLSTKSRAEGRAPNPARKACSASSKIRRLSACKQQ

Variants of: B1
Assay: STK11 functional score (HeLa growth suppression), rescaled enrichment; synonymous median = 1, nonsense median = 0 (normalised score)
Details: with HeLa; variant type: missense
How it was run: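 In HeLa, Bxb1 integrated POPCode codon-randomised libraries of codon-optimised STK11 at an AAVS1 landing pad; three regions were each transfected three times. Integrants, marked as BFP-negative and mCherry-positive, were FACS-sorted 4–5 days after electroporation and expanded for about two weeks before tiled gDNA amplicons were sequenced on NextSeq (~2 million reads per tile). Each functional score is a post/pre-selection log ratio corrected to wild type, rescaled to the synonymous and nonsense medians, and merged across codons and replicate transfections, with error estimated by bootstrapping.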
MEVVDPQQLGMFTEGELMSVGMDTFIHRIDSTEVIYQPRRKRAKLIGKYLMGDLLGEGSYGKVKEVLDSETLCRRAVKILKKKKLRRIPNGEANVKKEIQLLRRLRHKNVIQLVDVLYNEEKQKMYMVMEYCVCGMQEMSDSVPEKRFPVCQAHGYFCQLIDGLEYLHSQGIVHKDIKPGNLLLTTGGTLKISDLGVAEALHPFAADDTCRTSQGSPAFQPPEIANGLDTFSGFKVDIWSAGVTLYNITTGLYPFEGDNIYKLFENIGKGSYAIPGDCGPPLSDLLKGMLEYEPAKRFSIRQIRQHSWFRKKHPPAEAPVPIPPSPDTKDRWRSMTVVPYLEDLHGADEDEDLFDIEDDIIYTQDFTVPGQVPEEEASHNGQRRGLPKAVCMNGTEAAQLSTKSRAEGRAPNPARKACSASSKIRRLSACKQQ [L140S] was tested, and the STK11 functional score was -0.236 ± 0.08. MEVVDPQQLGMFTEGELMSVGMDTFIHRIDSTEVIYQPRRKRAKLIGKYLMGDLLGEGSYGKVKEVLDSETLCRRAVKILKKKKLRRIPNGEANVKKEIQLLRRLRHKNVIQLVDVLYNEEKQKMYMVMEYCVCGMQEMDDSVPEKRFPVCQAHGYFCQLIDGLEYLHSQGIVHKDIKPGNLLLTTGGTLKISDLGVAEALHPFAADDTCRTSQGSPAFQPPEIANGLDTFSGFKVDIWSAGVTLYNITTGLYPFEGDNIYKLFENIGKGSYAIPGDCGPPLSDLLKGMLEYEPAKRFSIRQIRQHSWFRKKHPPAEAPVPIPPSPDTKDRWRSMTVVPYLEDLHGADEDEDLFDIEDDIIYTQDFTVPGQVPEEEASHNGQRRGLPKAVCMNGTEAAQLSTKSRAEGRAPNPARKACSASSKIRRLSACKQQ [L140D] was tested, and the STK11 functional score was 0.0191 ± 0.11. MEVVDPQQLGMFTEGELMSVGMDTFIHRIDSTEVIYQPRRKRAKLIGKYLMGDLLGEGSYGKVKEVLDSETLCRRAVKILKKKKLRRIPNGEANVKKEIQLLRRLRHKNVIQLVDVLYNEEKQKMYMVMEYCVCGMQEMNDSVPEKRFPVCQAHGYFCQLIDGLEYLHSQGIVHKDIKPGNLLLTTGGTLKISDLGVAEALHPFAADDTCRTSQGSPAFQPPEIANGLDTFSGFKVDIWSAGVTLYNITTGLYPFEGDNIYKLFENIGKGSYAIPGDCGPPLSDLLKGMLEYEPAKRFSIRQIRQHSWFRKKHPPAEAPVPIPPSPDTKDRWRSMTVVPYLEDLHGADEDEDLFDIEDDIIYTQDFTVPGQVPEEEASHNGQRRGLPKAVCMNGTEAAQLSTKSRAEGRAPNPARKACSASSKIRRLSACKQQ [L140N] gave an STK11 functional score of 0.0882 ± 0.09. In the case of MEVVDPQQLGMFTEGELMSVGMDTFIHRIDSTEVIYQPRRKRAKLIGKYLMGDLLGEGSYGKVKEVLDSETLCRRAVKILKKKKLRRIPNGEANVKKEIQLLRRLRHKNVIQLVDVLYNEEKQKMYMVMEYCVCGMQEMADSVPEKRFPVCQAHGYFCQLIDGLEYLHSQGIVHKDIKPGNLLLTTGGTLKISDLGVAEALHPFAADDTCRTSQGSPAFQPPEIANGLDTFSGFKVDIWSAGVTLYNITTGLYPFEGDNIYKLFENIGKGSYAIPGDCGPPLSDLLKGMLEYEPAKRFSIRQIRQHSWFRKKHPPAEAPVPIPPSPDTKDRWRSMTVVPYLEDLHGADEDEDLFDIEDDIIYTQDFTVPGQVPEEEASHNGQRRGLPKAVCMNGTEAAQLSTKSRAEGRAPNPARKACSASSKIRRLSACKQQ [L140A], the STK11 functional score is reported as 0.543 ± 0.27. With MEVVDPQQLGMFTEGELMSVGMDTFIHRIDSTEVIYQPRRKRAKLIGKYLMGDLLGEGSYGKVKEVLDSETLCRRAVKILKKKKLRRIPNGEANVKKEIQLLRRLRHKNVIQLVDVLYNEEKQKMYMVMEYCVCGMQEMKDSVPEKRFPVCQAHGYFCQLIDGLEYLHSQGIVHKDIKPGNLLLTTGGTLKISDLGVAEALHPFAADDTCRTSQGSPAFQPPEIANGLDTFSGFKVDIWSAGVTLYNITTGLYPFEGDNIYKLFENIGKGSYAIPGDCGPPLSDLLKGMLEYEPAKRFSIRQIRQHSWFRKKHPPAEAPVPIPPSPDTKDRWRSMTVVPYLEDLHGADEDEDLFDIEDDIIYTQDFTVPGQVPEEEASHNGQRRGLPKAVCMNGTEAAQLSTKSRAEGRAPNPARKACSASSKIRRLSACKQQ [L140K] the STK11 functional score was 1.06 ± 0.089. MEVVDPQQLGMFTEGELMSVGMDTFIHRIDSTEVIYQPRRKRAKLIGKYLMGDLLGEGSYGKVKEVLDSETLCRRAVKILKKKKLRRIPNGEANVKKEIQLLRRLRHKNVIQLVDVLYNEEKQKMYMVMEYCVCGMQEMPDSVPEKRFPVCQAHGYFCQLIDGLEYLHSQGIVHKDIKPGNLLLTTGGTLKISDLGVAEALHPFAADDTCRTSQGSPAFQPPEIANGLDTFSGFKVDIWSAGVTLYNITTGLYPFEGDNIYKLFENIGKGSYAIPGDCGPPLSDLLKGMLEYEPAKRFSIRQIRQHSWFRKKHPPAEAPVPIPPSPDTKDRWRSMTVVPYLEDLHGADEDEDLFDIEDDIIYTQDFTVPGQVPEEEASHNGQRRGLPKAVCMNGTEAAQLSTKSRAEGRAPNPARKACSASSKIRRLSACKQQ [L140P] gave an STK11 functional score of -0.0157 ± 0.083. Work on MEVVDPQQLGMFTEGELMSVGMDTFIHRIDSTEVIYQPRRKRAKLIGKYLMGDLLGEGSYGKVKEVLDSETLCRRAVKILKKKKLRRIPNGEANVKKEIQLLRRLRHKNVIQLVDVLYNEEKQKMYMVMEYCVCGMQEMIDSVPEKRFPVCQAHGYFCQLIDGLEYLHSQGIVHKDIKPGNLLLTTGGTLKISDLGVAEALHPFAADDTCRTSQGSPAFQPPEIANGLDTFSGFKVDIWSAGVTLYNITTGLYPFEGDNIYKLFENIGKGSYAIPGDCGPPLSDLLKGMLEYEPAKRFSIRQIRQHSWFRKKHPPAEAPVPIPPSPDTKDRWRSMTVVPYLEDLHGADEDEDLFDIEDDIIYTQDFTVPGQVPEEEASHNGQRRGLPKAVCMNGTEAAQLSTKSRAEGRAPNPARKACSASSKIRRLSACKQQ [L140I] yielded an STK11 functional score of 1.15 ± 0.12. For MEVVDPQQLGMFTEGELMSVGMDTFIHRIDSTEVIYQPRRKRAKLIGKYLMGDLLGEGSYGKVKEVLDSETLCRRAVKILKKKKLRRIPNGEANVKKEIQLLRRLRHKNVIQLVDVLYNEEKQKMYMVMEYCVCGMQEMHDSVPEKRFPVCQAHGYFCQLIDGLEYLHSQGIVHKDIKPGNLLLTTGGTLKISDLGVAEALHPFAADDTCRTSQGSPAFQPPEIANGLDTFSGFKVDIWSAGVTLYNITTGLYPFEGDNIYKLFENIGKGSYAIPGDCGPPLSDLLKGMLEYEPAKRFSIRQIRQHSWFRKKHPPAEAPVPIPPSPDTKDRWRSMTVVPYLEDLHGADEDEDLFDIEDDIIYTQDFTVPGQVPEEEASHNGQRRGLPKAVCMNGTEAAQLSTKSRAEGRAPNPARKACSASSKIRRLSACKQQ [L140H], the STK11 functional score was -0.0286 ± 0.083. With MEVVDPQQLGMFTEGELMSVGMDTFIHRIDSTEVIYQPRRKRAKLIGKYLMGDLLGEGSYGKVKEVLDSETLCRRAVKILKKKKLRRIPNGEANVKKEIQLLRRLRHKNVIQLVDVLYNEEKQKMYMVMEYCVCGMQEMQDSVPEKRFPVCQAHGYFCQLIDGLEYLHSQGIVHKDIKPGNLLLTTGGTLKISDLGVAEALHPFAADDTCRTSQGSPAFQPPEIANGLDTFSGFKVDIWSAGVTLYNITTGLYPFEGDNIYKLFENIGKGSYAIPGDCGPPLSDLLKGMLEYEPAKRFSIRQIRQHSWFRKKHPPAEAPVPIPPSPDTKDRWRSMTVVPYLEDLHGADEDEDLFDIEDDIIYTQDFTVPGQVPEEEASHNGQRRGLPKAVCMNGTEAAQLSTKSRAEGRAPNPARKACSASSKIRRLSACKQQ [L140Q] the STK11 functional score was 1.54 ± 0.16. In the case of MEVVDPQQLGMFTEGELMSVGMDTFIHRIDSTEVIYQPRRKRAKLIGKYLMGDLLGEGSYGKVKEVLDSETLCRRAVKILKKKKLRRIPNGEANVKKEIQLLRRLRHKNVIQLVDVLYNEEKQKMYMVMEYCVCGMQEMFDSVPEKRFPVCQAHGYFCQLIDGLEYLHSQGIVHKDIKPGNLLLTTGGTLKISDLGVAEALHPFAADDTCRTSQGSPAFQPPEIANGLDTFSGFKVDIWSAGVTLYNITTGLYPFEGDNIYKLFENIGKGSYAIPGDCGPPLSDLLKGMLEYEPAKRFSIRQIRQHSWFRKKHPPAEAPVPIPPSPDTKDRWRSMTVVPYLEDLHGADEDEDLFDIEDDIIYTQDFTVPGQVPEEEASHNGQRRGLPKAVCMNGTEAAQLSTKSRAEGRAPNPARKACSASSKIRRLSACKQQ [L140F], the STK11 functional score is reported as -0.0987 ± 0.078. Variant MEVVDPQQLGMFTEGELMSVGMDTFIHRIDSTEVIYQPRRKRAKLIGKYLMGDLLGEGSYGKVKEVLDSETLCRRAVKILKKKKLRRIPNGEANVKKEIQLLRRLRHKNVIQLVDVLYNEEKQKMYMVMEYCVCGMQEMGDSVPEKRFPVCQAHGYFCQLIDGLEYLHSQGIVHKDIKPGNLLLTTGGTLKISDLGVAEALHPFAADDTCRTSQGSPAFQPPEIANGLDTFSGFKVDIWSAGVTLYNITTGLYPFEGDNIYKLFENIGKGSYAIPGDCGPPLSDLLKGMLEYEPAKRFSIRQIRQHSWFRKKHPPAEAPVPIPPSPDTKDRWRSMTVVPYLEDLHGADEDEDLFDIEDDIIYTQDFTVPGQVPEEEASHNGQRRGLPKAVCMNGTEAAQLSTKSRAEGRAPNPARKACSASSKIRRLSACKQQ [L140G] has an STK11 functional score of -0.0512 ± 0.082. For MEVVDPQQLGMFTEGELMSVGMDTFIHRIDSTEVIYQPRRKRAKLIGKYLMGDLLGEGSYGKVKEVLDSETLCRRAVKILKKKKLRRIPNGEANVKKEIQLLRRLRHKNVIQLVDVLYNEEKQKMYMVMEYCVCGMQEMRDSVPEKRFPVCQAHGYFCQLIDGLEYLHSQGIVHKDIKPGNLLLTTGGTLKISDLGVAEALHPFAADDTCRTSQGSPAFQPPEIANGLDTFSGFKVDIWSAGVTLYNITTGLYPFEGDNIYKLFENIGKGSYAIPGDCGPPLSDLLKGMLEYEPAKRFSIRQIRQHSWFRKKHPPAEAPVPIPPSPDTKDRWRSMTVVPYLEDLHGADEDEDLFDIEDDIIYTQDFTVPGQVPEEEASHNGQRRGLPKAVCMNGTEAAQLSTKSRAEGRAPNPARKACSASSKIRRLSACKQQ [L140R], the STK11 functional score was 0.437 ± 0.11. With MEVVDPQQLGMFTEGELMSVGMDTFIHRIDSTEVIYQPRRKRAKLIGKYLMGDLLGEGSYGKVKEVLDSETLCRRAVKILKKKKLRRIPNGEANVKKEIQLLRRLRHKNVIQLVDVLYNEEKQKMYMVMEYCVCGMQEMEDSVPEKRFPVCQAHGYFCQLIDGLEYLHSQGIVHKDIKPGNLLLTTGGTLKISDLGVAEALHPFAADDTCRTSQGSPAFQPPEIANGLDTFSGFKVDIWSAGVTLYNITTGLYPFEGDNIYKLFENIGKGSYAIPGDCGPPLSDLLKGMLEYEPAKRFSIRQIRQHSWFRKKHPPAEAPVPIPPSPDTKDRWRSMTVVPYLEDLHGADEDEDLFDIEDDIIYTQDFTVPGQVPEEEASHNGQRRGLPKAVCMNGTEAAQLSTKSRAEGRAPNPARKACSASSKIRRLSACKQQ [L140E] the STK11 functional score was -0.3 ± 0.087. Work on MEVVDPQQLGMFTEGELMSVGMDTFIHRIDSTEVIYQPRRKRAKLIGKYLMGDLLGEGSYGKVKEVLDSETLCRRAVKILKKKKLRRIPNGEANVKKEIQLLRRLRHKNVIQLVDVLYNEEKQKMYMVMEYCVCGMQEMCDSVPEKRFPVCQAHGYFCQLIDGLEYLHSQGIVHKDIKPGNLLLTTGGTLKISDLGVAEALHPFAADDTCRTSQGSPAFQPPEIANGLDTFSGFKVDIWSAGVTLYNITTGLYPFEGDNIYKLFENIGKGSYAIPGDCGPPLSDLLKGMLEYEPAKRFSIRQIRQHSWFRKKHPPAEAPVPIPPSPDTKDRWRSMTVVPYLEDLHGADEDEDLFDIEDDIIYTQDFTVPGQVPEEEASHNGQRRGLPKAVCMNGTEAAQLSTKSRAEGRAPNPARKACSASSKIRRLSACKQQ [L140C] yielded an STK11 functional score of 0.555 ± 0.35.
